This passage reports Km, Vmax and kcat results from publication PMC7432852, “2-Ketoglutarate-Generated In Vitro Enzymatic Biosystem Facilitates Fe(II)/2-Ketoglutarate-Dependent Dioxygenase-Mediated C–H Bond Oxidation for (2S,3R,4S)-4-Hydroxyisoleucine Synthesis” (International Journal of Molecular Sciences, 2020).

What is called Km is the substrate concentration at which the rate is half of its maximum. In general, Vmax refers to the rate approached at saturating substrate. Usually kcat stands for the maximal rate divided by the concentration of active sites.

Data set [1] concerns LGOX (L-glutamate oxidase). Conditions: 50 mM Tris-HCl pH 7.0, 30 °C; L-Glu 0.5–20 mM. The text has this: initial rate of 2-KG formation by HPLC, catalase present, Michaelis-Menten fit on LGOX (L-glutamate oxidase)
Substrate in data set [2]: O=C(O)CCC(=O)C(=O)O
As to the kind of experiment: initial rate of 4-HIL formation by HPLC, Michaelis-Menten fit. Format: biochemical, Bacillus thuringiensis. Conditions: 50 mM Tris-HCl pH 7.0, 30 °C, co-substrate L-Ile, FeSO4, L-ascorbic acid, 2-KG 1–40 mM. The text has this: (§1) initial rate of 4-HIL formation by HPLC, Michaelis-Menten fit on IDO (L-Ile dioxygenase)

Substrate in data set [3]: CC[C@H](C)[C@H](N)C(=O)O
The data set is described as above. It is filed as biochemical, Bacillus thuringiensis. As to conditions: 50 mM Tris-HCl pH 7.0, 30 °C, co-substrate 2-KG, FeSO4, L-ascorbic acid, L-Ile 0.5–20 mM.
Description: as §1

For `N[C@@H](CCC(=O)O)C(=O)O` [L-Glu], in data set [1], the Km came to 2.65 ± 0.11 mM.

B1: IDO (L-Ile dioxygenase) (Bacillus thuringiensis) (protein)
chain: MKMSGFSIEEKVHEFESKGFLEISNEIFLQEEENHSLLTQAQLDYYNLEDDAYGECRARSYSRYIKYVDSPDYILDNSNDYFQSKEYNYDDGGKVRQFNSINDSFLCNPLIQNIVRFDTEFAFKTNIIDKSKDLIIGLHQVRYKATKERPSFSSPIWLHKDDEPVVFLHLMNLSNTAIGGDNLIANSPREINQFISLKEPLETLVFGQKVFHAVTPLGTECSTEAFRDILLVTFSYKETK
Consider B1, for which, in data set [2], the Km turned out to be 15.12 ± 0.08 mM, the Vmax stood at 19.8 µmol/min/mg and the turnover number (kcat) was found to be 9.18 ± 0.07 s⁻¹. Besides, in data set [3], the Km is 6.34 ± 0.12 mM, the Vmax is 8.99 µmol/min/mg and the kcat is 4.18 ± 0.08 s⁻¹.
